Ends that are not written are not given here.
Tests used:
[1] = biological target: Protein A affinity purified KST4; test: competitive inhibition ELISA, Protein A purified KST4 at 1:5000 (FIG. 7B)
Description: We collected serum from each of three immunized rabbits (KST3, KST4, KST5). KST3 and 4 are sera from rabbits immunized with hepcidin-KLH conjugates produced using EDC chemistry, while KST5 is sera from conjugates produced using DSS chemistry (FIG. 7A). […] Additional validation of the anti-mature, folded, bioactive hepcidin antibodies described above was performed and their utility in competitive ELISA examined in the presence of varying dilutions of bass serum (FIG. 8 A-C). Note increasing inhibition of signal with increasing amounts of synthetic hepcidin added to tracer. Note the effects of serum on competitive ELISA standard curve (FIG. 8 C) generated with data from (FIG. 8 B) between 10-100 ngs of mature, folded, bioactive hepcidin. […] FIG. 9 is an example of a routine standard curve where hepcidin competitor concentrations are expressed as ng/ml, rather than total ngs added to the competition.

[2] = biological target: Protein A affinity purified antibodies (anti-hepcidin rabbit sera, source serum not named); test: competition ELISA with synthetic hepcidin as competitor
[3] = biological target: polyclonal anti-hepcidin rabbit sera (unpurified serum, source rabbit not named); test: as above
[4] = biological target: affinity purified rabbit anti-mature, folded, bioactive hepcidin antibody (KST4); test: as above

B1: synthetic, mature, refolded, bioactive bass hepcidin (peptide)
peptide: GCRFCCNCCPNMSGCGVCCRF-OH
modifications: disulfide (positions not given here)
notes: also called synthetic hepcidin
IC50 [1]: ~2.5 ng/mL
percent of signal competed away [2]: ~80%
percent of signal competed away [3]: 65%
percent of signal competed away [4]: > 90%
